Source: US8613931B2, “Compounds for treating beta-amyloidoses” (Affiris AG, priority 2008, dated 2013)

Key:
[1] = system: monoclonal antibody MV-001; assay: In vitro binding assay (ELISA), parental antibody MV-001; set-up: species or system C57/Bl6 mice; details: peptide-BSA on ELISA plate; OD halfmax, dilution factor 1:X of parental AB MV-001
Description: 1. In vitro binding assay (ELISA)
Peptides derived from Phage Display as well as variants thereof were coupled to BSA and bound to ELISA plates (1 μM; as indicated in the respective figures) and subsequently incubated with the monoclonal antibody that was used for the screening procedure to analyse binding capacity of identified peptides.

[2] = target: monoclonal antibody MV-001; assay: ELISA, peptide-BSA coated, MV-001; details: for Binding Capacity: scale: code
[3] = target: monoclonal antibody MV-001; assay: inhibition ELISA; competitor: coated original epitope p4371; details: for Inhibition Capacity: scale: code

Molecule: EDWFFWHC [p4709]
- Binding Capacity [1]: 1 (weak binding :<4000)

Molecule: LHIPFRHC [p4726]
- Binding Capacity [1]: 3 (strong binding :>20000)

Molecule: QLFKHSPC [p4747]
- Binding Capacity [1]: 3 (strong binding :>20000)

Molecule: SAGSFRHC [p4710]
- Binding Capacity [1]: 3 (strong binding :>20000)

Molecule: SNSEFRRC [p4743]
- Binding Capacity [1]: 3 (strong binding :>20000)

Molecule: SEFSHSSC [p4712]
- Binding Capacity [1]: 3 (strong binding :>20000)

Molecule: TPLMFWHC [p4733]
- Binding Capacity [1]: 1 (weak binding :<4000)

Molecule: APIQFRHC [p4750]
- Binding Capacity [1]: 3 (strong binding :>20000)

Molecule: NSSELRHC [p4752]
- Binding Capacity [1]: 3 (strong binding :>20000)

Molecule: EFLRHTLC [p4722]
- Binding Capacity [1]: 3 (strong binding :>20000)

Molecule: TSTEMWHC [p4754]
- Binding Capacity [1]: 1 (weak binding :<4000)

Molecule: ATPLFRHC [p4723]
- Binding Capacity [1]: 3 (strong binding :>20000)

Molecule: GEMRHQPC [p4702]
- Binding Capacity [1]: 3 (strong binding :>20000)

Molecule: QPNLFYHC [p4713]
- Binding Capacity [1]: 1 (weak binding :<4000)

Molecule: SNFRHSVC [p4749]
- Binding Capacity [1]: 3 (strong binding :>20000)

Molecule: SELRHSTC [p4744]
- Binding Capacity [1]: 3 (strong binding :>20000)

Molecule: SQSYFKHC [p4755]
- Binding Capacity [1]: 3 (strong binding :>20000)

Molecule: THMEFRRC [p4745]
- Binding Capacity [1]: 3 (strong binding :>20000)

Molecule: NELRHSTC [p4701]
- Binding Capacity [1]: 3 (strong binding :>20000)

Molecule: HEPLFSHC [p4719]
- Binding Capacity [1]: 1 (weak binding :<4000)

Molecule: QELKRYYC [p4724]
- Binding Capacity [1]: 1 (weak binding :<4000)

Molecule: QELKRYYC [p4724]
- Binding Capacity (code (weak binding, OD halfmax 1:<4000)) [2]: 1

Molecule: TSFRHGC [p4382]
- Inhibition Capacity (code (weaker than original epitope)) [3]: 1
- Binding Capacity [2]: 2

Molecule: DTYFPRSC [p4703]
- Binding Capacity [2]: 2

Molecule: TSVFRHC [p4383]
- Inhibition Capacity (code (weaker than original epitope)) [3]: 1
- Binding Capacity [2]: 3

Molecule: SELRHSTC [p4744]
- Binding Capacity [2]: 3

Molecule: SAMRHSLC [p4732]
- Binding Capacity [2]: 2

Molecule: QPNLFYHC [p4713]
- Binding Capacity (code (weak binding, OD halfmax 1:<4000)) [2]: 1

Molecule: EFLRHTLC [p4722]
- Binding Capacity [2]: 3

Molecule: AEFMHSVC [p4739]
- Binding Capacity [2]: 2

Molecule: LHIPFRHC [p4726]
- Binding Capacity [2]: 3

Molecule: QFKHDLC [p4391]
- Inhibition Capacity (code (weaker than original epitope)) [3]: 1
- Binding Capacity [2]: 2

Molecule: EDWFFWHC [p4709]
- Binding Capacity (code (weak binding, OD halfmax 1:<4000)) [2]: 1

Molecule: NELRHSTC [p4701]
- Binding Capacity [2]: 3

Molecule: ELFKHHLC [p4714]
- Binding Capacity [2]: 3

Molecule: ILFRHGC [p4390]
- Inhibition Capacity (code (weaker than original epitope)) [3]: 1
- Binding Capacity [2]: 3

Molecule: SAGSFRHC [p4710]
- Binding Capacity [2]: 3

Molecule: SEFSHSSC [p4712]
- Binding Capacity [2]: 3

Molecule: SQYFPRPC [p4729]
- Binding Capacity [2]: 2

Molecule: CHEFRH [p4802]
- Inhibition Capacity [3]: 2
- Binding Capacity [2]: 3

Molecule: SEFKHGC [p4381]
- Inhibition Capacity (code (weaker than original epitope)) [3]: 1
- Binding Capacity [2]: 3

Molecule: YEFRHAQC [p4748]
- Binding Capacity [2]: 3

Molecule: AEFSHWHC [p4737]
- Binding Capacity [2]: 2

Molecule: SNSEFRRC [p4743]
- Binding Capacity [2]: 3

Molecule: ATFRHSPC [p4716]
- Binding Capacity [2]: 2

Molecule: GEMRHQPC [p4702]
- Binding Capacity [2]: 3

Molecule: NELFKHFC [p4727]
- Binding Capacity [2]: 2

Molecule: QLFKHSPC [p4747]
- Binding Capacity [2]: 3

Molecule: MLPFRHGC [p4731]
- Binding Capacity [2]: 2

Molecule: TGLMFKHC [p4736]
- Binding Capacity [2]: 2

Molecule: SAFRHHC [p4387]
- Inhibition Capacity (code (weaker than original epitope)) [3]: 1
- Binding Capacity [2]: 2

Molecule: SSSFFPRC [p4708]
- Binding Capacity [2]: 2

Molecule: APMYFPHC [p4717]
- Binding Capacity [2]: 2

Molecule: NSSELRHC [p4752]
- Binding Capacity [2]: 3

Molecule: QVMRHHAC [p4711]
- Binding Capacity [2]: 2

Molecule: SHFRHGC [p4389]
- Inhibition Capacity (code (weaker than original epitope)) [3]: 1
- Binding Capacity [2]: 2

Molecule: TPLMFWHC [p4733]
- Binding Capacity (code (weak binding, OD halfmax 1:<4000)) [2]: 1

Molecule: LPFRHGC [p4388]
- Inhibition Capacity (code (weaker than original epitope)) [3]: 1
- Binding Capacity [2]: 2

Molecule: AANYFPRC [p4706]
- Binding Capacity [2]: 2

Molecule: SNFRHSVC [p4749]
- Binding Capacity [2]: 3

Molecule: HEPLFSHC [p4719]
- Binding Capacity (code (weak binding, OD halfmax 1:<4000)) [2]: 1

Molecule: VELRHSRC [p4704]
- Binding Capacity [2]: 2

Molecule: SQSYFKHC [p4755]
- Binding Capacity [2]: 3

Molecule: AYFPHTSC [p4751]
- Binding Capacity [2]: 2

Molecule: APIQFRHC [p4750]
- Binding Capacity [2]: 3

Molecule: HEFRHC [p4803]
- Inhibition Capacity [3]: 2
- Binding Capacity [2]: 3

Molecule: TYFSHSLC [p4718]
- Binding Capacity [2]: 2

Molecule: ATPLFRHC [p4723]
- Binding Capacity [2]: 3

Molecule: SLMRHSSC [p4721]
- Binding Capacity [2]: 2

Molecule: YSMRHDAC [p4705]
- Binding Capacity [2]: 2

Molecule: SQFRHYC [p4385]
- Inhibition Capacity (code (weaker than original epitope)) [3]: 1
- Binding Capacity [2]: 2

Molecule: THMEFRRC [p4745]
- Binding Capacity [2]: 3

Molecule: TSTEMWHC [p4754]
- Binding Capacity (code (weak binding, OD halfmax 1:<4000)) [2]: 1

Molecule: QDFRHYC [p4380]
- Inhibition Capacity (code (weaker than original epitope)) [3]: 1
- Binding Capacity [2]: 2

Molecule: IGFRHDSC [p4742]
- Binding Capacity [2]: 2

Molecule: ATFRHSTC [p4735]
- Binding Capacity [2]: 2

Molecule: LQFKHSTC [p4734]
- Binding Capacity [2]: 2

Molecule: LMFRHNC [p4386]
- Inhibition Capacity (code (weaker than original epitope)) [3]: 1
- Binding Capacity [2]: 3

Molecule: TPFRHTC [p4384]
- Inhibition Capacity (code (weaker than original epitope)) [3]: 1
- Binding Capacity [2]: 2
